Data as given in patent US20230087785A1, “Leucine-Rich Repeat Kinase 2 Allosteric Modulators” (VIB VZW, priority 2020, published 2023).

T1: LRRK2 RocCOR domain construct (human, UniProt Q5S007 1334-1840)
T1 construct: A second construct (residues 1293-1840, N-terminal His6-MBP) was used in certain screening experiments; not shown: N-terminal Twin-Strep-tag; C-terminal His10-tag
T1 sequence: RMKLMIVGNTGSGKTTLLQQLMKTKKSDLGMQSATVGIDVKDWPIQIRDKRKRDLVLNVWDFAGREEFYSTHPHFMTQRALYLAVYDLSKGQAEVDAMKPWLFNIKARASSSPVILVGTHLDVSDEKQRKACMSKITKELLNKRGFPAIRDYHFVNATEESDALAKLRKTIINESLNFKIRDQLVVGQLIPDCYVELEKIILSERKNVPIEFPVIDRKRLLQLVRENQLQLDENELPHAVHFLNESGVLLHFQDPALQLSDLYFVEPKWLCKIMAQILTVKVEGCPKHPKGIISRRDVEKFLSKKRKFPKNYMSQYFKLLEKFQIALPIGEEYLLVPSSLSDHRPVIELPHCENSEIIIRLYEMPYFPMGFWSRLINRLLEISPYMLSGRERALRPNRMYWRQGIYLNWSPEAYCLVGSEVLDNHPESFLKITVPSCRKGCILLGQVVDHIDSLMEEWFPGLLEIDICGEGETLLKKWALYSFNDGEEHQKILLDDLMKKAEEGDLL

T2: LRRK2 Roc domain construct (human, UniProt Q5S007 1329-1520)
T2 construct: not shown: N-terminal His6-tag of pET-28a
T2 sequence: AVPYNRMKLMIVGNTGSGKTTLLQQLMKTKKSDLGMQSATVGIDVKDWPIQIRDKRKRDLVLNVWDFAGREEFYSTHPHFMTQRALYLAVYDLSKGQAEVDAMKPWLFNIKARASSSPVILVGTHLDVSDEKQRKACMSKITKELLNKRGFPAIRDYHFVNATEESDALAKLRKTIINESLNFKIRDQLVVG

T3: LRRK2 kinase-WD40 domain construct (human, UniProt Q5S007 1876-2527)
T3 construct: also called K-WD40; not shown: N-terminal His-tag (pFastBac)
T3 sequence: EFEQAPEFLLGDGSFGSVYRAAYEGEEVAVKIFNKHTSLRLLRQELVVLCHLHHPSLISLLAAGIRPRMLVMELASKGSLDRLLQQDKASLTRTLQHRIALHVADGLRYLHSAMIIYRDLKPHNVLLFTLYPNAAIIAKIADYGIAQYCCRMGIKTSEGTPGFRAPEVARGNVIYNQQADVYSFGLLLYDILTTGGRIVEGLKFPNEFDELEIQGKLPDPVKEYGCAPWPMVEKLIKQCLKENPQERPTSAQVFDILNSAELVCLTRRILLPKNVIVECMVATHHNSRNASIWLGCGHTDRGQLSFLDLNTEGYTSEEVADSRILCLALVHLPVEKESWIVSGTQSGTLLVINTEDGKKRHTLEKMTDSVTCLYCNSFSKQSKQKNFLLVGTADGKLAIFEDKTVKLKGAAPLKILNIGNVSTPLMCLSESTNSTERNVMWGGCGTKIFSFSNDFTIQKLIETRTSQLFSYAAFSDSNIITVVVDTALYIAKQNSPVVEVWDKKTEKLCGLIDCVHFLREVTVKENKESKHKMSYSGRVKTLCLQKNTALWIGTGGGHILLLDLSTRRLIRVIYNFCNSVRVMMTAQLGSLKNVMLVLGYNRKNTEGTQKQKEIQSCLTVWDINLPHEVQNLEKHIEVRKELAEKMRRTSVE

B1: Nb23 (CA13612) (VHH)
VHH: QVQLVESGGGLVQAGGSLRLSCAASGRTFSRYTMGWFRQAPGKDREFVARITTSGAVTTYADSAKGRFTISRDNAKNTVYLQMNTLKPEDTAVYYCAAGQGQLSSQSRFVDYWGQGTQVTVSS
B2: Nb42 (CA14259) (VHH)
VHH: QVQLVESGGGLVQAGGSLRLSCAASGDVNYAVGWFRQAPRKEREFVAAINWRGDNTDYTDSVKGRFTISRDNAKNTVYLQMNSLKPEDTAVYYCAAKSAPYWYSDIAPDYWGQGTQVTVSS
notes: biotinylated form used as trapping agent in BLI of Nb40
B3: Nb6 (CA12618) (VHH)
VHH: QVQLVESGGGLVQAGGSLRLSCAASGSIFSPTAMGWYRQAPGKERELVAGITSGGYTNYRNFARGRFTISRDNAKKTVYLQMNSLNPEDTAVYYCNTLTISWSWGQGTQVTVSS
B4: Nb1 (CA12610) (VHH)
VHH: QVQLVESGGGLVQAGGSLRLSCVASGRIFSGNAMGWYRQAPGRQRELVAGITNGGYTNYRQFVKGRFTISRDNAKRTVYLQMNSLKPEDTAVYYCNALDREARQVDYWGQGTQVTVSS
B5: Nb40 (CA14135) (VHH)
VHH: QVQLVESGGGLVQPGGSLRLSCVASGTIYAINRMGWYRQAPGKQRELVALITLGGGTNYGDSVKGRFTISRDNAKNTGYLQMNSLKPEDTAVYYCKVESSGYTDVFWGQGTQVTVSS
notes: biotinylated form used as trapping agent in BLI

How the values were obtained:
[1] = target: T4, Full-length human Leucine-rich repeat kinase 2 (LRRK2), N-terminal Strep/Flag (SF) tagged (human, UniProt Q5S007 1-2527); test: BLI; Nb on LRRK2 trapped on streptavidin sensor via biotinylated Nb40; steady-state fit; BLI; LRRK2 trapped on the sensor via biotinylated Nb40
T4 construct: Purified from HEK293T cells in presence of GDP or GTPγS; also called FL LRRK2; FL-LRRK2
Procedure: (§1) To determine the binding affinity (dissociation constant KD) of the ten Nbs for LRRK2, two methods were used in parallel: microscale thermophoresis (MST) and bio-layer interferometry (BLI). For the MST experiment, we site-specifically labeled the ten Nbs with a m-TAM RA fluorophore at its C-terminus, using sortase-mediated coupling, and then titrated increasing amounts of full-length LRRK2 to these Nbs (FIGS. 13A-13E).
(§2) Biolayer interferometry (BLI) measurements were performed using an Octet Red96 (Forte Bio, Inc.) system in a buffer containing 50 mM HEPES pH 8.0, 150 mM NaCl, 10 mM MgCl₂, 5% glycerol, 0.1% BSA, 0.05% Tween, at 25° C. and with shaking speed 1000 rpm. […] The biotinylated Nbs were first loaded on pre-equilibrated SA biosensors at a concentration of 5 μg/mL. This Nb-loaded sensor was then used to trap FL-LRRK2 from a 50 nM LRRK2 solution. […] All experiments were performed in triplicate.

[2] = target: T4, Full-length human Leucine-rich repeat …; test: cell-based or functional assay
[3] = target: T1, LRRK2 RocCOR domain construct; test: ELISA, antigen coated on the plate, purified Nb detected via its EPEA tag
Summary of the method: (§3)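 The RocCOR, Roc, COR-B and kinase-WD40 constructs were coated side by side on one ELISA plate. Binding of each purified nanobody to every coated construct was then detected.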

[4] = target: T2, LRRK2 Roc domain construct; test: as above
Summary of the method: as §3

[5] = target: T5, LRRK2 COR-B construct (C-terminal part of the COR domain), His6-MBP tagged (human, UniProt Q5S007 1672-1840); test: as above
T5 construct: also called (MBP-)COR-B; not shown: N-terminal His6-MBP-tag of pDEST-566
Summary of the method: as §3

[6] = target: T4, Full-length human Leucine-rich repeat …; test: kinase kinetics (PhosphoSens, varied ATP), global fit to mixed inhibition; affinity for apo-LRRK2; enzyme kinetics, mixed inhibition fit; apo (non-ATP-bound) LRRK2
Procedure: (§4) Full Michaelis-Menten curves (relative velocity versus [ATP]) in presence of different Nb concentrations were collected at 30° C. in a buffer consisting of 50 mM HEPES pH 7.5, 0.1% Brij-35, 50 mM NaCl, 10 mM MgCl₂ and […], using a fixed concentration of AQT0615 (10 μM) and varying concentrations of ATP. The LRRK2 concentration was chosen such that initial rates (linear fluorescence versus time curves) were obtained, and LRRK2, ATP and the Nbs were preincubated at 4° C. for 30 min prior to starting the reaction by adding the peptide substrate. The Michaelis-Menten curves for the different Nb concentrations were globally fit on a mixed-inhibition model using GraphPad Prism, according to the equation: […]

[7] = target: T4, Full-length human Leucine-rich repeat …; test: kinase kinetics (PhosphoSens, varied ATP), global fit to mixed inhibition; ATP-bound LRRK2; enzyme kinetics, mixed inhibition fit; ATP-bound LRRK2
Procedure: as §4

[8] = target: T4, Full-length human Leucine-rich repeat …; test: MST; LRRK2 titrated to m-TAMRA-labelled Nb, in presence of GTPγS instead of GDP; MST in presence of GTPγS instead of GDP
Procedure: (§5) Microscale thermophoresis (MST) experiments were performed for determining equilibrium binding affinities (KD) of Nbs binding to FL-LRRK2. Therefore, Nb were site-specifically labelled at their C-terminus with m-TAMRA, using Sortase-mediated peptide exchange. The Nbs were recloned into a pHEN29 vector which is subsequently used to express and purify the Nbs with a C-terminal LPETGG-His₆-EPEA tag. Exchange of the latter peptide with an m-TAMRA-labeled GGGYK peptide (GenicBio, Shanghai, China) was performed using Sortase, and unlabeled Nb and unincorporated peptide were removed using a Ni-NTA and SEC purification step, respectively. […] After incubation at 4° C. for 30 mins, samples were loaded in capillaries and measurements were performed at 25° C. using 50-70% LED power and 80% laser intensity (laser on-time: 30 s, laser off-time: 5 s). All experiments were performed in triplicate.

[9] = target: T4, Full-length human Leucine-rich repeat …; test: BLI; Nb on LRRK2 trapped on streptavidin sensor via biotinylated Nb40; steady-state fit
Procedure: as §1, §2

[10] = target: T3, LRRK2 kinase-WD40 domain construct; test: ELISA, antigen coated on the plate, purified Nb detected via its EPEA tag
Summary of the method: as §3

[11] = target: T4, Full-length human Leucine-rich repeat …; test: MST; LRRK2 titrated to m-TAMRA-labelled Nb, 500 µM GDP
Procedure: as §5

[12] = target: T4, Full-length human Leucine-rich repeat …; test: ELISA titration on coated LRRK2, Nb detected via its C-terminal EPEA tag, A405 read at 0.5 h
Procedure: (§6) LRRK2 was coated in the wells of the ELISA plate and the ELISA signal for a dilution series of the respective Nbs (detected via their C-terminal EPEA-tag) is plotted in function of the Nb concentration. […] A “no antigen control”, where no LRRK2 was coated on the bottom of the well, is also included.
(§7) Detection of Nb binding was performed using the C-terminal EPEA tag of the Nbs as described before, resulting in a dose response titration curve reflecting an apparent affinity of the Nbs. […] A “no antigen control”, where no LRRK2 was coated on the bottom of the well, was also included.

[13] = target: T4, Full-length human Leucine-rich repeat …; test: kinase kinetics (PhosphoSens, varied ATP), global fit to mixed inhibition; affinity for apo-LRRK2; enzyme kinetics, mixed inhibition fit; apo-LRRK2
Procedure: as §4

[14] = target: T4, Full-length human Leucine-rich repeat …; test: ELISA titration on coated LRRK2, Nb detected via its C-terminal EPEA tag, A405 read at 10 h
Procedure: as §6, §7

[15] = target: T4, Full-length human Leucine-rich repeat …; test: BLI; Nb on LRRK2 trapped on streptavidin sensor via biotinylated Nb42; steady-state fit
Procedure: as §1, §2

Binder	Kd [1] [nM]	IC50 of in vitro LRRK2 kinase activity (AQT0615 peptide, PhosphoSens, 1 mM ATP) [2] [nM]	binding result [3]	binding result [4]	binding result [5]	Ki [6] [nM]	Ki [7] [nM]	Kd [8] [nM]	Kd [9] [nM]	binding result [10]	Kd [11] [nM]	EC50 (read off the curve) [12] [nM]	Ki [13] [nM]	EC50 (read off the curve) [14] [nM]	Kd [15] [nM]
B1	65	~65000	no binding (tested: not given)	no binding (tested: not given)	no binding (tested: not given)	9000	66000	–	–	–	–	–	–	–	–
B2	–	–	no binding (tested: not given)	–	no binding (tested: not given)	–	–	94	82	no binding (tested: not given)	–	–	–	–	–
B3	–	14000	–	no binding (tested: not given)	–	–	8000	–	7	no binding (tested: not given)	83	~5	5000	–	–
B4	–	8000	–	no binding (tested: not given)	–	–	30000	–	114	no binding (tested: not given)	91	–	16000	~10	–
B5	–	–	no binding (tested: not given)	no binding (tested: not given)	no binding (tested: not given)	–	–	–	–	–	26	–	–	–	41
